# Laboratory results: patent US5574016A, “Peptide compound and a process for the preparation thereof” (Fujisawa Pharmaceutical Co., Ltd., priority 1991, dated 1996)
# Test system: thrombosis model in Guinea-pig (FeCl3 carotid artery thrombosis)
# Assay: Enhancement of thrombolytic activity of TPA in thrombosis model in Guinea-pig
# Type: in vivo, Male Hartley guinea-pigs
# Conditions: Group 1 (5 animals): saline and r-TPA 0.30 mg/kg i.v. bolus +1.0 mg/kg/hour i.v. infusion; reperfusion = 50 % recovery of carotid blood flow velocity; recorded up to 90 minutes
# Description: Male Hartley guinea-pigs (500-800 g) were anesthetized with urethane (1.25 g/kg i.p.). The carotid artery and cervical vein were carefully exposed after a midline cervical insision. The vein was cannulated with a polyethylene catheter (PE50; Becton Dikinson, U.S.A.) for the injection and infusion of the drug. A pulse Dopplar flow probe was placed around the carotid artery to record the blood flow velocity to moniter thrombus formation and thrombolysis. Carotid artery thrombosis was induced by the FeCl3 method as follows;
# a square (1 mm×1 mm) of ADVANTEC No. 2 filter paper immersed in 20% FeCl3 was placed on the carotid artery which became occluded by a thrombus.
# When the blood flow velocity decreased to zero, the filter paper was removed from the vessel and the carotid artery were washed with saline more than 4 times. The test compound or saline was injected 3 minutes after the washing and 3 minutes later r-TPA [Actilyse (trademark); Boehringer Ingelheim Ltd] was infused for 60 minutes.
# The animals were divided into the following groups;
# Group 1 (5 animals): Saline and r-TPA at 0.30 mg/kg i.v. bolus +1.0 mg/kg/hour i.v. infusion […]
# The reperfusion was defined as 50 % recovery of carotid artery blood flow velocity compared with the initial value. The blood flow was recorded up to 90 minutes.
molecule,measurement,value
"r-TPA: r-TPA [Actilyse (trademark); Boehringer Ingelheim Ltd], tissue plasminogen activator, infused for 60 minutes (protein, UniProt P00750 36-562, looked up) Tissue-type plasminogen …: SYQVICRDEKTQMIYQQHQSWLRPVLRSNRVEYCWCNSGRAQCHSVPVKSCSEPRCFNGGTCQQALYFSDFVCQCPEGFAGKCCEIDTRATCYEDQGISYRGTWSTAESGAECTNWNSSALAQKPYSGRRPDAIRLGLGNHNYCRNPDRDSKPWCYVFKAGKYSSEFCSTPACSEGNSDCYFGNGSAYRGTHSLTESGASCLPWNSMILIGKVYTAQNPSAQALGLGKHNYCRNPDGDAKPWCHVLKNRRLTWEYCDVPSCSTCGLRQYSQPQFRIKGGLFADIASHPWQAAIFAKHRRSPGERFLCGGILISSCWILSAAHCFQERFPPHHLTVILGRTYRVVPGEEEQKFEVEKYIVHKEFDDDTYDNDIALLQLKSDSSRCAQESSVVRTVCLPPADLQLPDWTECELSGYGKHEALSPFYSERLKEAHVRLYPSSRCTSQHLLNRTVTDNMLCAGDTRSGGPQANLHDACQGDSGGPLVCLNDGRMTLVGIISWGLGCGQKDVPGVYTKVTNYLDWIRDNMRP",number of animals in which reperfusion was observed,1
